According to patent publication US20230416411A1 (Hoffmann-La Roche, published 2023):
Substitutions are numbered along the chain they refer to.

B1: TYRP1 TCB CD3opt (bispecific antibody, human IgG1, kappa, L234A L235A)
heavy 1: not shown
heavy 2: QVQLVQSGAEVKKPGASVKVSCKASGFNIKDYFLHWVRQAPGQGLEWMGWINPDNGNTVYAQKFQGRVTMTADTSTSTVYMELSSLRSEDTAVYYCTRRDYTYEKAALDYWGQGTLVTVSSASTKGPSVFPLAPSSKSTSGGTAALGCLVEDYFPEPVTVSWNSGALTSGVHTFPAVLQSSGLYSLSSVVTVPSSSLGTQTYICNVNHKPSNTKVDEKVEPKSCDKTHTCPPCPAPEAAGGPSVFLFPPKPKDTLMISRTPEVTCVVVDVSHEDPEVKFNWYVDGVEVHNAKTKPREEQYNSTYRVVSVLTVLHQDWLNGKEYKCKVSNKALGAPIEKTISKAKGQPREPQVCTLPPSRDELTKNQVSLSCAVKGFYPSDIAVEWESNGQPENNYKTTPPVLDSDGSFFLVSKLTVDKSRWQQGNVFSCSVMHEALHNHYTQKSLSLSP
light 1: DIQMTQSPSSLSASVGDRVTITCRASGNIYNYLAWYQQKPGKVPKLLIYDAKTLADGVPSRFSGSGSGTDFTLTISSLQPEDVATYYCQHFWSLPFTFGQGTKLEIKRTVAAPSVFIFPPSDRKLKSGTASVVCLLNNFYPREAKVQWKVDNALQSGNSQESVTEQDSKDSTYSLSSTLTLSKADYEKHKVYACEVTHQGLSSPVTKSFNRGEC
light 2: EVQLLESGGGLVQPGGSLRLSCAASGFQFSSYAMNWVRQAPGKGLEWVSRIRSKYNNYATYYADSVKGRFTISRDDSKNTLYLQMNSLRAEDTAVYYCVRHTTFPSSYVSYYGYWGQGTLVTVSSASVAAPSVFIFPPSDEQLKSGTASVVCLLNNFYPREAKVQWKVDNALQSGNSQESVTEQDSKDSTYSLSSTLTLSKADYEKHKVYACEVTHQGLSSPVTKSFNRGEC
B2: EGFRvIII TCB CD3orig (EGFRvIII binder P063.056) (bispecific antibody, human IgG1, kappa, L234A L235A)
heavy 1: not shown
heavy 2: EVQLVQSGAEVKKPGESLKISCKGSGYSFDSYWIAWVRQMPGKGLEWMGVIHPYDSDTRYSPSFQGQVTISADKSISTAYLQWSSLKASDTAMYYCARVSRSSYAFDYWGQGTLVTVSSASTKGPSVFPLAPSSKSTSGGTAALGCLVEDYFPEPVTVSWNSGALTSGVHTFPAVLQSSGLYSLSSVVTVPSSSLGTQTYICNVNHKPSNTKVDEKVEPKSCDKTHTCPPCPAPEAAGGPSVFLFPPKPKDTLMISRTPEVTCVVVDVSHEDPEVKFNWYVDGVEVHNAKTKPREEQYNSTYRVVSVLTVLHQDWLNGKEYKCKVSNKALGAPIEKTISKAKGQPREPQVCTLPPSRDELTKNQVSLSCAVKGFYPSDIAVEWESNGQPENNYKTTPPVLDSDGSFFLVSKLTVDKSRWQQGNVFSCSVMHEALHNHYTQKSLSLSP
light 1: not shown
light 2: B1 light 2 with Q28T, S31T, T102G, T103N, P105G, S106N, Y111W, Y112F, G113A
notes: 2+1 IgG CrossFab, inverted, with charge modifications; also called EGFRvIII TCB P063.056 with CD3orig
B3: TYRP1 TCB CD3orig (bispecific antibody, human IgG1, kappa, L234A L235A)
heavy 1: not shown
heavy 2: B1 heavy 2
light 1: B1 light 1
light 2: B1 light 2 with Q28T, S31T, T102G, T103N, P105G, S106N, Y111W, Y112F, G113A
B4: EGFRvIII antibody P063.056, human IgG1 PGLALA (antibody, V domains shown)
VH: EVQLVQSGAEVKKPGESLKISCKGSGYSFDSYWIAWVRQMPGKGLEWMGVIHPYDSDTRYSPSFQGQVTISADKSISTAYLQWSSLKASDTAMYYCARVSRSSYAFDYWGQGTLVTVSS
VL: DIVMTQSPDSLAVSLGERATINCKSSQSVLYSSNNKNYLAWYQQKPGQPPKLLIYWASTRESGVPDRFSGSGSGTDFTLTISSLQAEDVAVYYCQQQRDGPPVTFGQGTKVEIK
notes: Anti-EGFRvIII PGLALA IgG
B5: EGFRvIII TCB P056.021 (CD3orig) (bispecific antibody, V domains shown)
VH 1: B4 VH
VL 1: not shown
VH 2: not shown
VL 2: QAVVTQEPSLTVSPGGTVTLTCGSSTGAVTTSNYANWVQEKPGQAFRGLIGGTNKRAPGTPARFSGSLLGGKAALTLSGAQPEDEAEYYCALWYSNLWVFGGGTKLTVL
notes: also called parental EGFRvIII TCB P056.021; P056.021 EGFRvIII TCB with CD3orig

Columns and labels:
[1] = target: TYRP1 on the primary melanoma cell line M150543 (human, UniProt P17643 25-537); experiment: cell-based or functional assay
[2] = target: T1, EGFRvIII expressed on the cell surface (CHO-EGFRvIII, DK-MG, U87MG-EGFRvIII cells) (human, UniProt P00533 298-1210); experiment: flow cytometry on U87MG-EGFRvIII cells, labelled anti-human Fc secondary antibody
T1 construct: also called EGFRvIII on cells
Procedure: (§1) Cells used for binding experiments were harvested, washed with PBS and resuspended in FACS buffer. The antibody staining was performed in a 96-well round bottom plate. Cells were harvested, counted and 100 000 to 200 000 cells were seeded per well. The plate was centrifuged for 4 min at 400×g and the supernatant was removed. The test antibodies were diluted in FACS buffer and 20 μl of the antibody solution were added to the cells for 30 min at 4° C. To remove unbound antibody the cells were washed twice with FACS buffer before addition of the diluted secondary antibody PE-conjugated AffiniPure F(ab′)2 Fragment goat anti-human IgG Fcg Fragment Specific (Jackson ImmunoResearch, #109-116-170 or #109-116-098). After 30 min incubation on 4° C. unbound secondary antibody was washed away. Before measurement the cells were resuspended in 200 μl FACS buffer and analyzed by flow cytometry using BD Canto II or BD FACS Fortessa.

[3] = target: T1, EGFRvIII expressed on the cell surface …; experiment: flow cytometry on U87MG-EGFRvIII cells, IgG PGLALA
Procedure: as §1

Row | Binder | EC50 of tumor cell killing at 48 h, PBMC donor 1 [1] | EC50 of tumor cell killing at 48 h, PBMC donor 2 [1] | EC50 of tumor cell killing at 48 h, PBMC donor 3 [1] | EC50 (read off the curve) [2] | EC50 (read off the curve) [3]
1 | B1 | 0.31 nM | 0.03 nM | 0.08 nM |  | 
2 | B2 |  |  |  | ~10 nM | 
3 | B3 | 0.44 nM | 0.05 nM | 0.14 nM |  | 
4 | B4 |  |  |  | ~4 nM | ~5 nM
5 | B5 |  |  |  | ~5 nM | 
